Test results: paper PMC7785020, “A unique hormonal recognition feature of the human glucagon-like peptide-2 receptor” (Cell Research, 2020)
Positions count from the first letter of the chain named.

How the values were obtained:
[1] = biological target: GLP-2R N334^ECL2 A (human) (UniProt O95838); test: radioligand binding; competition on transiently transfected COS-7 cells: unlabeled teduglutide 0.1 nM to 1 μM against 10–15 pM [125I]GLP-2(1–33, M10Y); 4 h, 4 °C; 50 mM HEPES pH 7.4, 1 mM CaCl2, 5 mM MgCl2, 0.5% BSA; three-parameter logistic fit
[2] = biological target: GLP-2R R344^5.40A (human) (UniProt O95838); test: as above
[3] = biological target: GLP-2R W340^5.36A (human) (UniProt O95838); test: as above
[4] = biological target: GLP-2R Y182^1.43A (human) (UniProt O95838); test: as above
[5] = biological target: GLP-2R Y252^ECL1A (human) (UniProt O95838); test: as above
[6] = biological target: Human GLP-2R WT (1–553) (human) (UniProt O95838); test: as above
GLP-2R K231^2.67A = biological target: T1, GLP-2R K231^2.67A (Homo sapiens, UniProt O95838, K231A); test: cAMP accumulation, K231^2.67A; type: cell-based; parameters: WT (1–553); expressed in transfected cells; HEK 293T (cAMP); details: Table S3, K231A; HEK 293T, 30 min, RT; mean ± SEM, n ≥ 3 in duplicate; read-out: cAMP Emax (% WT)
T1 sequence (O95838 1-553 K231A): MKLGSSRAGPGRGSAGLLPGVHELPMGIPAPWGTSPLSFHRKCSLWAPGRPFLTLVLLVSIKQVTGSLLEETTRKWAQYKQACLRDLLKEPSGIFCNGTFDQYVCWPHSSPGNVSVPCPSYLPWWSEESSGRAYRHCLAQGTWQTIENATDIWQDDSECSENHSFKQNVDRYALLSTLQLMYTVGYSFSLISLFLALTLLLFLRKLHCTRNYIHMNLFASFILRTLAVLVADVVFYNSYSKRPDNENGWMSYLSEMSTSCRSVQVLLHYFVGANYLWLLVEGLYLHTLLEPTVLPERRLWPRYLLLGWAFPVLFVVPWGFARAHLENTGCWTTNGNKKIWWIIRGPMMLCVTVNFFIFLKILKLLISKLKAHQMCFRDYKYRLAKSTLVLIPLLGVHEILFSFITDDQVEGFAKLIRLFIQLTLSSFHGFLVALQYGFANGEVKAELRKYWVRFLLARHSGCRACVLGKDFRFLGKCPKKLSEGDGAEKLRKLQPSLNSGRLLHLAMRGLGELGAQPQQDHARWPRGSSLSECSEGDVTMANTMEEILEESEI
Procedure: (§1) HEK 293T cells were cultured in Dulbecco’s Modified Eagle’s Medium (DMEM) (Gibco, Waltham, USA) supplemented with 10% (v/v) fetal bovine serum (FBS) (Gibco) and 1% (v/v) sodium pyruvate (Gibco) at 37 °C, 5% CO2 in a humidified incubator. They were seeded onto 6-well cell culture plates and transiently transfected with different GLP-2R constructs using Lipofectamine 2000 transfection reagent (Invitrogen, Carlsbad, CA, USA). After 24 h, the transfected cells were seeded onto 384-well microtiter plates (3000 cells per well) in HBSS supplemented with 5 mM HEPES, 0.1% (w/v) bovine serum albumin (BSA) and 0.5 mM 3-isobutyl-1- methylxanthine, and stimulated with increasing concentrations of GLP-2 for 30 min at RT. Eu and Ulight were diluted by cAMP detection buffer and added to the plates separately to terminate the reaction. Plates were incubated at RT for 60 min before measuring the fluorescence intensity at 620 nm and […] by an EnVision multilabel plate reader (PerkinElmer, Boston, USA).

GLP-2R N334^ECL2A = biological target: T2, GLP-2R N334^ECL2A (Homo sapiens, UniProt O95838, N334A); test: cAMP accumulation, N334^ECL2A; type: cell-based; parameters: GLP-2R (1-553) (WT); expressed in transfected cells; host or cells: HEK 293T; details: Table S3, N334A; HEK 293T, 30 min, RT; mean ± SEM, n ≥ 3 in duplicate; read-out: cAMP Emax (% WT)
T2 sequence (O95838 1-553 N334A): T1 sequence (O95838 1-553 K231A) with A231K, N334A
Procedure: as §1

% Binding of WT [1] [%]	% Binding of WT [2] [%]	% Binding of WT [3] [%]	% Binding of WT [4] [%]	% Binding of WT [5] [%]	% Binding of WT [6] [%]	Compound	Emax (GLP-2R K231^2.67A) [%]	Emax (GLP-2R N334^ECL2A) [%]
2	3.5	8.6	3.2	6.3	99.7	[^125I]GLP-2(1–33, M10Y) (peptide)	–	–
–	–	–	–	–	–	CC[C@H](C)[C@H](NC(=O)[C@H](Cc1ccccc1)NC(=O)[C@H](CC(=O)O)NC(=O)[C@H](CCCNC(=N)N)NC(=O)[C@H](C)NC(=O)[C@H](C)NC(=O)[C@H](CC(C)C)NC(=O)[C@H](CC(N)=O)NC(=O)[C@H](CC(=O)O)NC(=O)[C@H](CC(C)C)NC(=O)[C@@H](NC(=O)[C@@H](NC(=O)[C@H](CC(N)=O)NC(=O)[C@H](CCSC)NC(=O)[C@H](CCC(=O)O)NC(=O)[C@H](CC(=O)O)NC(=O)[C@H](CO)NC(=O)[C@H](Cc1ccccc1)NC(=O)[C@H](CO)NC(=O)CNC(=O)[C@H](CC(=O)O)NC(=O)[C@H](C)NC(=O)[C@@H](N)Cc1c[nH]cn1)[C@@H](C)O)[C@@H](C)CC)C(=O)N[C@@H](CC(N)=O)C(=O)N[C@@H](Cc1c[nH]c2ccccc12)C(=O)N[C@@H](CC(C)C)C(=O)N[C@H](C(=O)N[C@@H](CCC(N)=O)C(=O)N[C@H](C(=O)N[C@@H](CCCCN)C(=O)N[C@H](C(=O)N[C@H](C(=O)N[C@@H](CC(=O)O)C(=O)O)[C@@H](C)O)[C@@H](C)CC)[C@@H](C)O)[C@@H](C)CC [Human GLP-2 (1–33)]	105 ± 3	103 ± 2.9
